Laboratory results taken from patent publication US20250312499A1, “KISSPEPTIN RECEPTOR (KISS1R) TARGETED THERAPEUTICS AND USES THEREOF” (priority 2024, published 2025).
Numbered stars: 1 amine (or outer) side, 2 acyl side, 3 side chain; on linkers, the order of the positions; unused ones are H or OH. Square brackets hold non-standard residues; d marks the D form. * marks the point of attachment. X2 = 4‑amino‑1‑((3-fluoro-4-methylbenzyl)glycyl)piperidine‑4‑carboxylic acid, Cc1ccc(CN(CC(=O)N2CCC(N[*:1])(C(=O)[*:2])CC2)[*:3])cc1F; Apc(4-OMe) = 4-aminopiperidine-4-carboxylic acid residue N1-acylated by a methoxy-bearing benzylglycyl; DOTA = O=C(O)CN1CCN(CC(=O)O)CCN(CC(=O)*)CCN(CC(=O)O)CC1; Api(1-amidino) = N=C(N)N1CCC(N)(C(=O)O)CC1; Phe(4-CN) = N#Cc1ccc(C[C@H](N)C(=O)O)cc1; HO(CH2CH2O)2CH2CH2CO = O=C(CCOCCOCCO)*; 2Nal = N[C@@H](Cc1ccc2ccccc2c1)C(=O)O; 4Pal = N[C@@H](Cc1ccncc1)C(=O)O; 4Amb = NCc1ccc(C(=O)O)cc1; APM = not defined here; Ahx = NCCCCCC(=O)O; azaGly = NNC(=O)O

B1: Compound 242 (peptide)
peptide: {DOTA-4Amb}-[dE]NTF[azaGly]L[X2][Phe(4-CN)]-NH2
SMILES: Cc1ccc(CNCC(=O)N2CCC(NC(=O)[C@H](CC(C)C)NC(=O)NNC(=O)[C@H](Cc3ccccc3)NC(=O)[C@@H](NC(=O)[C@H](CC(N)=O)NC(=O)[C@@H](CCC(=O)O)NC(=O)c3ccc(CNC(=O)CN4CCN(CC(=O)O)CCN(CC(=O)O)CCN(CC(=O)O)CC4)cc3)[C@@H](C)O)(C(=O)N[C@@H](Cc3ccc(C#N)cc3)C(N)=O)CC2)cc1F
B2: Compound 241 (peptide)
peptide: {DOTA-4Amb}-ENTF[azaGly]L[X2][Phe(4-CN)]-NH2
SMILES: Cc1ccc(CNCC(=O)N2CCC(NC(=O)[C@H](CC(C)C)NC(=O)NNC(=O)[C@H](Cc3ccccc3)NC(=O)[C@@H](NC(=O)[C@H](CC(N)=O)NC(=O)[C@H](CCC(=O)O)NC(=O)c3ccc(CNC(=O)CN4CCN(CC(=O)O)CCN(CC(=O)O)CCN(CC(=O)O)CC4)cc3)[C@@H](C)O)(C(=O)N[C@@H](Cc3ccc(C#N)cc3)C(N)=O)CC2)cc1F
B3: Compound 266 (peptide)
peptide: {DOTA}-[dY][2Nal]NTF[azaGly]L[Api(1-amidino)]W-NH2
SMILES: CC(C)C[C@H](NC(=O)NNC(=O)[C@H](Cc1ccccc1)NC(=O)[C@@H](NC(=O)[C@H](CC(N)=O)NC(=O)[C@H](Cc1ccc2ccccc2c1)NC(=O)[C@@H](Cc1ccc(O)cc1)NC(=O)CN1CCN(CC(=O)O)CCN(CC(=O)O)CCN(CC(=O)O)CC1)[C@@H](C)O)C(=O)NC1(C(=O)N[C@@H](Cc2c[nH]c3ccccc23)C(N)=O)CCN(C(=N)N)CC1
B4: Compound 10 (peptide)
peptide: {DOTA-Ahx}-FGL[X2]W-NH2
SMILES: Cc1ccc(CNCC(=O)N2CCC(NC(=O)[C@H](CC(C)C)NC(=O)CNC(=O)[C@H](Cc3ccccc3)NC(=O)CCCCCNC(=O)CN3CCN(CC(=O)O)CCN(CC(=O)O)CCN(CC(=O)O)CC3)(C(=O)N[C@@H](Cc3c[nH]c4ccccc34)C(N)=O)CC2)cc1F
B5: Compound 238 (peptide)
peptide: {DOTA-Ahx}-ENTF[azaGly]L[X2]W-NH2
SMILES: Cc1ccc(CNCC(=O)N2CCC(NC(=O)[C@H](CC(C)C)NC(=O)NNC(=O)[C@H](Cc3ccccc3)NC(=O)[C@@H](NC(=O)[C@H](CC(N)=O)NC(=O)[C@H](CCC(=O)O)NC(=O)CCCCCNC(=O)CN3CCN(CC(=O)O)CCN(CC(=O)O)CCN(CC(=O)O)CC3)[C@@H](C)O)(C(=O)N[C@@H](Cc3c[nH]c4ccccc34)C(N)=O)CC2)cc1F
B6: Compound 11 (peptide)
peptide: {DOTA-Ahx}-FGL[X2]Y-NH2
SMILES: Cc1ccc(CNCC(=O)N2CCC(NC(=O)[C@H](CC(C)C)NC(=O)CNC(=O)[C@H](Cc3ccccc3)NC(=O)CCCCCNC(=O)CN3CCN(CC(=O)O)CCN(CC(=O)O)CCN(CC(=O)O)CC3)(C(=O)N[C@@H](Cc3ccc(O)cc3)C(N)=O)CC2)cc1F
B7: Compound 254 (peptide)
peptide: {HO(CH2CH2O)2CH2CH2CO}-[dK](DOTA)NTF[azaGly]L[X2][4Pal]-NH2
SMILES: Cc1ccc(CNCC(=O)N2CCC(NC(=O)[C@H](CC(C)C)NC(=O)NNC(=O)[C@H](Cc3ccccc3)NC(=O)[C@@H](NC(=O)[C@H](CC(N)=O)NC(=O)[C@@H](CCCCNC(=O)CN3CCN(CC(=O)O)CCN(CC(=O)O)CCN(CC(=O)O)CC3)NC(=O)CCOCCOCCO)[C@@H](C)O)(C(=O)N[C@@H](Cc3ccncc3)C(N)=O)CC2)cc1F
B8: Compound 253 (peptide)
peptide: {HO(CH2CH2O)2CH2CH2CO}-K(DOTA)NTF[azaGly]L[X2][4Pal]-NH2
SMILES: Cc1ccc(CNCC(=O)N2CCC(NC(=O)[C@H](CC(C)C)NC(=O)NNC(=O)[C@H](Cc3ccccc3)NC(=O)[C@@H](NC(=O)[C@H](CC(N)=O)NC(=O)[C@H](CCCCNC(=O)CN3CCN(CC(=O)O)CCN(CC(=O)O)CCN(CC(=O)O)CC3)NC(=O)CCOCCOCCO)[C@@H](C)O)(C(=O)N[C@@H](Cc3ccncc3)C(N)=O)CC2)cc1F

What follows are binders tested against human kisspeptin receptor (KISS1R) (human), Q969F8 (assay: radioligand competition, hKISS1R membranes; legend: A is <10 nM).
human kisspeptin receptor (KISS1R) (human), Q969F8, sequence (Q969F8 whole entry): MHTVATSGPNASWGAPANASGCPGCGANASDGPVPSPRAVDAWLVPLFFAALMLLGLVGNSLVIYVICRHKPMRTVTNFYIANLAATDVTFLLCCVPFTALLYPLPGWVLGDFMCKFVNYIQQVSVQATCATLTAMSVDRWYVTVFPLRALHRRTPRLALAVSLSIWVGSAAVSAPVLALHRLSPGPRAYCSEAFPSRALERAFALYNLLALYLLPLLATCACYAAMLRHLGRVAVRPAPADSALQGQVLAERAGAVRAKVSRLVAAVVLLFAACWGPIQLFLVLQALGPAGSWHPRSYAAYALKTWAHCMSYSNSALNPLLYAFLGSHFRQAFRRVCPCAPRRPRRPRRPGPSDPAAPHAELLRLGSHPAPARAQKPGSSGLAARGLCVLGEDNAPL

Ki, < 10 nM:
B1
{1‑hydroxy‑3,6,9,12,15,18,21,24‑octaoxaheptacosan‑27‑oyl}-K(DOTA)NTF[azaGly]L[X2][4Pal]-NH2 [Compound 256]
B2
{DOTA-4Amb}-NTFGL[X2][Phe(4-CN)]-NH2 (not fully specified) [Compound 240]
{DOTA-APM}-F[azaGly]L[X2]F-NH2 (reading uncertain) [Compound 245]
{DOTA-Ahx}-ENTF[azaGly]L[Apc(4-OMe)]F-NH2 [Compound 236]
{DOTA-APM}-F[azaGly]L[X2]Y-NH2 (reading uncertain) [Compound 247]
{3‑(2-(2-methoxyethoxy)ethoxy)propanoyl}-K(DOTA)NTF[azaGly]L[Api(1-amidino)]W-NH2 [Compound 264]
{DOTA-APM}-F[azaGly]L[X2][Phe(4-CN)]-NH2 (reading uncertain) [Compound 244]
B3
{DOTA-Ahx}-NTF[azaGly]L[Apc(4-OMe)]F-NH2 [Compound 235]
{DOTA-APM}-TF[azaGly]L[X2]Y-NH2 (reading uncertain) [Compound 250]
B4
B5
{3‑(2-(2-methoxyethoxy)ethoxy)propanoyl}-K(DOTA)NTF[azaGly]L[X2][4Pal]-NH2 [Compound 255]
B6
B7
B8
{DOTA-APM}-NTF[azaGly]L[X2]Y-NH2 (reading uncertain) [Compound 249]
{DOTA}-ENTF[azaGly]L[Apc(4-OMe)]F-NH2 [Compound 237]
